One may read the koff as a measure of how fast the partners let go of each other. A higher koff goes with a short-lived complex.

This note sets out measurements from US20230406935A1 (F STAR THERAPEUTICS, published 2023).

Residue numbers refer to the chain shown, from its start.

The target of experiment [1] is T1, Human PD-L1 expressed on cells (human, UniProt Q9NZQ7 19-290). Kind of experiment: cell-based or functional assay.
Experiment [2] deals with T2, Monomeric His-tagged human PD-L1 (Acro biosystems PD1-H5229) (human, UniProt Q9NZQ7 19-238).
T2 construct: also called hPD-L1-his; PD-L1-his
Kind of experiment: off-rate on PD-L1, mock mAb^2; instrument not given.

Experiment [3] deals with T1, Human PD-L1 expressed on cells. Kind of experiment: cell-based or functional assay. The source holds these as a separate data set.
The target in experiment [4] is T2, Monomeric His-tagged human PD-L1 (Acro …). The experiment can be described thus: off-rate, binding to hPD-L1, mock mAb^2; instrument not stated.

T2 sequence (Q9NZQ7 19-238 limits assumed): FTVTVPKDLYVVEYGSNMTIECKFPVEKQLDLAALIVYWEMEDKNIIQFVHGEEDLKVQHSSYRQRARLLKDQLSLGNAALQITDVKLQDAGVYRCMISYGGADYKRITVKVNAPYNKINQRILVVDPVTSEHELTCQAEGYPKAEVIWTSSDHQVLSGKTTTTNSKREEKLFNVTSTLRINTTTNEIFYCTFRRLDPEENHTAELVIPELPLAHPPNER
T1 sequence (Q9NZQ7 19-290 limits assumed): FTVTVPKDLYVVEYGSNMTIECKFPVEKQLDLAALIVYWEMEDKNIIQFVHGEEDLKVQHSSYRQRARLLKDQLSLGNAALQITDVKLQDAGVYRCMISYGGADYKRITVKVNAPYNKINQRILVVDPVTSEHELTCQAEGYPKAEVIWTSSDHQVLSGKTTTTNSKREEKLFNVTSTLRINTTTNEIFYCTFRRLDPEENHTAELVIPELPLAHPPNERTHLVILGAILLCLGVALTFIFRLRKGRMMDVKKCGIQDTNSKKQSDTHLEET

B1: anti-PD-L1 mAb YW243.55.S1 (antibody, V domains shown)
VH: not shown
VL: DIQMTQSPSSLSASVGDRVTITCRASQDVSTAVAWYQQKPGKAPKLLIYSASFLYSGVPSRFSGSGSGTDFTLTISSLQPEDFATYYCQQYLFTPPTFGQGTKVEIKR
Take B1: the “DO11.10 T cell activation assay EC50” value in experiment [1] worked out at 0.257 nM.

B2: FS17-33-157AA/HELD1.3 (bispecific antibody)
chain 1: QVQLQESGPGLVRPSQTLSLTCTVSGSTFSGYGVNWVRQPPGRGLEWIGMIWGDGNTDYNSALKSRVTMLVDTSKNQFSLRLSSVTAADTAVYYCARERDYRLDYWGQGSLVTVSSASTKGPSVFPLAPSSKSTSGGTAALGCLVKDYFPEPVTVSWNSGALTSGVHTFPAVLQSSGLYSLSSVVTVPSSSLGTQTYICNVNHKPSNTKVDKKVEPKSCDKTHTCPPCPAPEAAGGPSVFLFPPKPKDTLMISRTPEVTCVVVDVSHEDPEVKFNWYVDGVEVHNAKTKPREEQYNSTYRVVSVLTVLHQDWLNGKEYKCKVSNKALPAPIEKTISKAKGQPREPQVYTLPPSRDEEGYWVSLTCLVKGFYPSDIAVEWESNGEPQYWAKTTPPVLDSDGSFFLYSKLTVSNWRWQLDDFSCSVMHEALHNHYTQKSLSLSPGK
chain 2: DIQMTQSPASLSASVGETVTITCRASGNIHNYLAWYQQKQGKSPQLLVYNAKTLADGVPSRFSGSGSGTQYSLKINSLQPEDFGSYYCQHFWSTPRTFGGGTKLEIKRTVAAPSVFIFPPSDEQLKSGTASVVCLLNNFYPREAKVQWKVDNALQSGNSQESVTEQDSKDSTYSLSSTLTLSKADYEKHKVYACEVTHQGLSSPVTKSFNRGEC
Regarding B2, the off-rate constant (koff) in experiment [2] was 0.000559 s⁻¹. Besides, in experiment [3], the “DO11.10 EC50” value was found to be 0.481 nM.

B3: FS17-33-161AA/HELD1.3 (bispecific antibody)
chain 1: B2 chain 1 with E357L
chain 2: B2 chain 2
As for B3, the koff in experiment [2] amounted to 0.000578 s⁻¹. The “DO11.10 EC50” value in experiment [3] stood at 0.453 nM.

B4: FS17-33-271AA/HELD1.3 (bispecific antibody)
chain 1: B2 chain 1 with E357S, Q416H
chain 2: B2 chain 2
Molecule B4 had a koff in experiment [2] of 0.000518 s⁻¹. For the same molecule, the “DO11.10 EC50” value in experiment [3] was 0.254 nM.

B5: FS17-33-454AA/HELD1.3 (bispecific antibody)
chain 1: QVQLQESGPGLVRPSQTLSLTCTVSGSTFSGYGVNWVRQPPGRGLEWIGMIWGDGNTDYNSALKSRVTMLVDTSKNQFSLRLSSVTAADTAVYYCARERDYRLDYWGQGSLVTVSSASTKGPSVFPLAPSSKSTSGGTAALGCLVKDYFPEPVTVSWNSGALTSGVHTFPAVLQSSGLYSLSSVVTVPSSSLGTQTYICNVNHKPSNTKVDKKVEPKSCDKTHTCPPCPAPEAAGGPSVFLFPPKPKDTLMISRTPEVTCVVVDVSHEDPEVKFNWYVDGVEVHNAKTKPREEQYNSTYRVVSVLTVLHQDWLNGKEYKCKVSNKALPAPIEKTISKAKGQPREPQVYTLPPSRDEFGYWVSLTCLVKGFYPSDIAVEWESNGEPQYWAKTTPPVLDSDGSFFLYSKLTVSNWRWQLDDVFSCSVMHEALHNHYTQKSLSLSPGK
chain 2: B2 chain 2
Take B5: the koff in experiment [4] amounted to 0.000269 s⁻¹.

B6: FS17-33-457AA/HELD1.3 (bispecific antibody)
chain 1: B5 chain 1 with F357S, N412Q
chain 2: B2 chain 2
Consider B6, for which, in experiment [4], the koff came to 0.000589 s⁻¹.

B7: FS17-33-241AA/HELD1.3 (bispecific antibody)
chain 1: B2 chain 1 with E357S, N412H
chain 2: B2 chain 2
B7: in experiment [2], the off-rate (koff) was 0.000592 s⁻¹. Also, the “DO11.10 EC50” value in experiment [3] worked out at 0.304 nM.

B8: FS17-33-166AA/HELD1.3 (bispecific antibody)
chain 1: B2 chain 1 with E357Y
chain 2: B2 chain 2
For B8, in experiment [2], the koff worked out at 0.000523 s⁻¹. Moreover, in experiment [3], the “DO11.10 EC50” value was 0.238 nM.

B9: FS17-33-235AA/HELD1.3 (bispecific antibody)
chain 1: B2 chain 1 with E357S, N412A
chain 2: B2 chain 2
Molecule B9 returned an off-rate (koff) in experiment [2] of 0.000709 s⁻¹. Also, the “DO11.10 EC50” value in experiment [3] was found to be 0.561 nM.

B10: FS17-33-462AA/HELD1.3 (bispecific antibody)
chain 1: B5 chain 1 with F357S, D419A
chain 2: B2 chain 2
As to B10, the koff in experiment [4] was determined as 0.000899 s⁻¹.

B11: FS17-33-316AA/HELD1.3 (bispecific antibody)
chain 1: B2 chain 1 with E357S, D419A
chain 2: B2 chain 2
In experiment [2], B11 had a koff of 0.000566 s⁻¹. In addition, the “DO11.10 EC50” value in experiment [3] was found to be 0.563 nM.

B12: FS17-33-159AA/HELD1.3 (bispecific antibody)
chain 1: B2 chain 1 with E357H
chain 2: B2 chain 2
On to B12, for which the koff in experiment [2] is 0.000427 s⁻¹. Moreover, the “DO11.10 EC50” value in experiment [3] was found to be 0.263 nM.

B13: FS17-33-266AA/HELD1.3 (bispecific antibody)
chain 1: B2 chain 1 with E357S, Q416R
chain 2: B2 chain 2
B13 showed a koff in experiment [2] of 0.000377 s⁻¹. Also, in experiment [3], the “DO11.10 EC50” value came out at 0.434 nM.

B14: FS17-33-163AA/HELD1.3 (bispecific antibody)
chain 1: B2 chain 1 with E357F
chain 2: B2 chain 2
Regarding B14, the koff in experiment [2] came out at 0.000372 s⁻¹. The “DO11.10 EC50” value in experiment [3] stood at 0.37 nM.

B15: FS17-33-456AA/HELD1.3 (bispecific antibody)
chain 1: B5 chain 1 with F357S, N412A
chain 2: B2 chain 2
As to B15, in experiment [4], the koff turned out to be 0.000619 s⁻¹.

B16: FS17-33-460AA/HELD1.3 (bispecific antibody)
chain 1: B5 chain 1 with F357S, Q416H
chain 2: B2 chain 2
B16 gave a koff in experiment [4] of 0.000202 s⁻¹.

B17: FS17-33-239AA/HELD1.3 (bispecific antibody)
chain 1: B2 chain 1 with E357S, N412Q
chain 2: B2 chain 2
The molecule B17 came in with a koff in experiment [2] of 0.000693 s⁻¹. The “DO11.10 EC50” value in experiment [3] is 0.588 nM.

B18: FS17-33-461AA/HELD1.3 (bispecific antibody)
chain 1: B5 chain 1 with F357S, Q416S
chain 2: B2 chain 2
In turn, B18 gave an off-rate (koff) in experiment [4] of 0.000359 s⁻¹.

B19: FS17-33-453AA/HELD1.3 (bispecific antibody)
chain 1: B5 chain 1 with F357L
chain 2: B2 chain 2
Regarding B19, the koff in experiment [4] was 0.000303 s⁻¹.

B20: FS17-33-458AA/HELD1.3 (bispecific antibody)
chain 1: B5 chain 1 with F357S, N412H
chain 2: B2 chain 2
B20: in experiment [4], the koff was determined as 0.000456 s⁻¹. Compared with the last molecule, the koff is about 1.5-fold higher.

B21: FS17-33-459AA/HELD1.3 (bispecific antibody)
chain 1: B5 chain 1 with F357S, Q416R
chain 2: B2 chain 2
B21 registered a koff in experiment [4] of 0.00038 s⁻¹.

B22: FS17-33-277AA/HELD1.3 (bispecific antibody)
chain 1: B2 chain 1 with E357S, Q416S
chain 2: B2 chain 2
Turning to B22, the koff in experiment [2] was 0.000415 s⁻¹. Also, in experiment [3], the “DO11.10 EC50” value was found to be 0.319 nM.

B23: FS17-33-455AA/HELD1.3 (bispecific antibody)
chain 1: B5 chain 1 with F357Y
chain 2: B2 chain 2
B23: the koff in experiment [4] came to 0.000343 s⁻¹.

B24: Fcab FS17-33-288 with LALA mutation (designed binder)
chain: TCPPCPAPEAAGGPSVFLFPPKPKDTLMISRTPEVTCVVVDVSHEDPEVKFNWYVDGVEVHNAKTKPREEQYNSTYRVVSVLTVLHQDWLNGKEYKCKVSNKALPAPIEKTISKAKGQPREPQVYTLPPSRDESGYWVSLTCLVKGFYPSDIVVEWESNGEPQYWAKTTPPVLDSDGSFFLYSKLTVSNWRWQIDDFSCSVMHEALHNHYTQKSLSLSPGK
In the case of B24, the “DO11.10 T cell activation assay EC50” value in experiment [1] turned out to be 0.137 nM.

B25: Fcab FS17-33-296 with LALA mutation (designed binder)
chain: B24 chain with I194V
B25: in experiment [1], the “DO11.10 T cell activation assay EC50” value came out at 0.166 nM.

B26: Fcab FS17-33-289 with LALA mutation (designed binder)
chain: B24 chain with I194L
In the case of B26, the “DO11.10 T cell activation assay EC50” value in experiment [1] turned out to be 0.228 nM.

B27: Fcab FS17-33-334 with LALA mutation (designed binder)
chain: B24 chain with V153A, I194L
Consider B27, for which the “DO11.10 T cell activation assay EC50” value in experiment [1] is 0.381 nM.
